In assay [1] the target is TβRII-GFP (UniProt P37173). The assay can be described thus: AFM single-molecule force spectroscopy; TGF-β1-modified AFM tips on live HeLa cells expressing TβRII-GFP; contact mode, room temperature, loading rate 1.0 x 10^4 pN/s; untreated cells.
The target of assay [2] is TβRII-GFP (UniProt P37173). As to the kind of experiment: AFM single-molecule force spectroscopy; TGF-β1-modified AFM tips on live HeLa cells expressing TβRII-GFP; contact mode, room temperature, loading rate 1.0 x 10^4 pN/s; cells treated with 50 μM metformin.

TβRII-GFP, sequence (P37173 23-567): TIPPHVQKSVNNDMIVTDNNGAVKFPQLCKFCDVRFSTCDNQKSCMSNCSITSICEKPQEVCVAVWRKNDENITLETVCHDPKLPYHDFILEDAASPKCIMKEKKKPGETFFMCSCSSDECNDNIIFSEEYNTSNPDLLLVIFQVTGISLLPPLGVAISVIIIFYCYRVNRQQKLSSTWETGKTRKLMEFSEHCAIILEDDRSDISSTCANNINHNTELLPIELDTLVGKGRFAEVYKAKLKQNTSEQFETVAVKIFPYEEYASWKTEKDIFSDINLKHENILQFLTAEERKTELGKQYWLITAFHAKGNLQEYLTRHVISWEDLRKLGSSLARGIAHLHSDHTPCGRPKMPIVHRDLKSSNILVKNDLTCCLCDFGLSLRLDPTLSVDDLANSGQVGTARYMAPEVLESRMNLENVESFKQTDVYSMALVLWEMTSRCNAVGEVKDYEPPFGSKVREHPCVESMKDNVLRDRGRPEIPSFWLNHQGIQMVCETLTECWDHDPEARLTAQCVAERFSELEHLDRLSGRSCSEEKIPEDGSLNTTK

In assay [1], Recombinant human TGF-β1 (ligand) returned a binding force (averaged histogram peak value) of 49.5 pN and a binding probability of 21.7%. In assay [2], this substance showed a binding force (averaged histogram peak value), with 50 μM metformin of 49.3 pN and a binding probability, with 50 μM metformin of 9.9%.

For the origin of these results see publication PMC4923858.
